The values below come from US20180244768A1 (published 2018).

Experiment [1] concerns the target T1, human thyroglobulin (TG) peptide on HLA-A*02:01 (human).
T1 peptide: LVLEIFTLL
Nature of the experiment: cytokine release. As for the experimental part:
(§1) Interferon (IFN)-γ release by transduced PBL was determined as previously described in Wang et al., J. Immunol. Methods, 366(1-2): 43-51 (2011). Briefly, retrovirally-transduced cells (1×10⁵) were co-cultured with 5×10⁴ target cells (XTC, XTC/A2, Cos A2, or Cos A2 transfected with TG) or control tumor cell lines for 18-22 hrs in RPMI with 10% FBS at 37° C., 5% CO₂. On the subsequent day, IFN-γ secretion was determined by enzyme-linked immunosorbent assay (ELISA).

The target in experiment [2] is T2, human thyroglobulin (TG) peptide on HLA-A*02:01 (human).
T2 peptide: NLFGGKFLV
Nature of the experiment: cytokine release. As to the method: as §1

B1: human anti-TG TCR (TCR, V domains shown)
Valpha: RKEVEQDPGPFNVPEGATVAFNCTYSNSASQSFFWYRQDCRKEPKLLMSVYSSGNEDGRFTAQLNRASQYISLLIRDSKLSDSATYLCVVHSSNTGKLIFGQGTTLQVKP
Vbeta: NAGVTQTPKFQVLKTGQSMTLQCAQDMNHEYMSWYRQDPGMGLRLIHYSVGAGITDQGEVPNGYNVSRSTTEDFPLRLLSAAPSQTSVYFCASSYSLTSGGALVSYEQYFGPGTRLTVT
Regarding B1, the binding result in experiment [1] was “recognises”.

B2: murine anti-TG TCR (TCR, V domains shown)
Valpha: GEQVEQRPPHLSVREGDSAVIICTYTDPNSYYFFWYKQEPGAGLQLLMKVFSSTEINEGQGFTVLLNKKDKQLSLNLTAAHPGDSAVYFCAVSSSGSWQLIFGSGTQLTVMP
Vbeta: NSKVIQTPRYLVKGQGQKAKMRCIPEKGHPVVFWYQQNKNNEFKFLINFQNQEVLQQIDMTEKRFSAECPSNSPCSLEIQSSEAGDSALYLCASLGGSQDTQYFGPGTRLLVL
For the molecule B2, the binding result in experiment [2] is “recognises”.
